These results are taken from the RNAGym collection of RNA variant scans (doi:10.1093/molbev/msab373).

To fix the notation:
B1: Azoarcus group I ribozyme (parent)
chain: GUGCCUUGCGCCGGGAAACCACGCAAGGGAUGGUGUCAAAUUCGGCGAAACCUAAGCGCCCGCCCGGGCGUAUGGCAACGCCGAGCCAAGCUUCGGCGCCUGCGCCGAUGAAGGUGUAGAGACUAGACGGCACCCACCUAAGGCAAACGCUAUGGUGAAGGCAUAGUCCAGGGAGUGGCGAAAGUCACACAAACCGG

In the data set the parent is B1. Briefly: reverse-splicing fitness (ratio to wild type); higher = more active; in vitro selection; Mg2+ level not given. In a few lines:
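An in vitro group I ribozyme library with randomized positions was T7-transcribed and gel-purified. In triplicate, 10 pmol RNA in EPPS pH 7.5 was reacted with 50 pmoles of a 30-nt RNA substrate for 1 h at 37 °C across several added MgCl2 levels (1–48 mM), then stopped with EDTA. Products were reverse transcribed from a substrate-complementary primer, PCR-amplified and sequenced (HiSeq 4000). Fitness is a variant's read proportion after selection over that before, normalised to wild type.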
Regarding A111U A120C A145G C150U C169G, the reverse-splicing fitness came out at 0.00992.

A111U A120U A145U C150A C169G: the reverse-splicing fitness was 0.0047. Turning to A120U A145U C150G C169G, the reverse-splicing fitness stood at 0.0307. The result for C82A A120U A145C C150G U176A reads 0.00523.

Consider C82G A111G A145U C150G U176A, for which the reverse-splicing fitness is 0.0185.

Regarding C82A A145C C150A C169U, the reverse-splicing fitness was 0.00913. The result for C82U A120U C169A U176A reads 0.00238; that for C82A A111C A120U, 0.0221; that for C82A A111C A120G A145G C150G C169A U176C, 0.0113. The result for A111U A145G C150U C169A reads 0.025; that for C82A A111G A120C C150G C169A, 0.00992. Take C82G A111G A120G A145U C150U C169A U176C: the reverse-splicing fitness was 0.0159.

Turning to C82U A120U A145C C150U C169A, the reverse-splicing fitness was 0.00167. The result for A120U A145U reads 0.89; that for C82U A111G A120G A145G C150A, 0.00878.

Take A111C A120G A145G C169G U176C: the reverse-splicing fitness was determined as 0.0552. The value for C82G A120C A145C C150A C169A was 0.00726; that for C82G A111C A120U C150G C169A U176G was 0.00331. For the variant A111U C150A U176A, the reverse-splicing fitness worked out at 0.207. In the case of C82G A111U A145U C169U U176A, the reverse-splicing fitness was 0.0146. The value for C82U A111G A145C C150A C169U U176C was 0.00672; that for C82A A120G A145U C150U C169A U176A was 0.013; that for C82G A111C A120U A145U C150A C169U U176C was 0.00353. Take C82U A120U A145C C150A U176G: the reverse-splicing fitness stood at 0.00282. In the case of C82A A111G A145G C150U C169G U176A, the reverse-splicing fitness amounted to 0.0156. The value for A111C A120C A145G C150A C169G U176C was 0.0253. The value for C82G A111G A120G A145C C150A C169A U176C was 0.00767; that for A111G U176G was 0.354. In the case of C82A A120U A145C C150U C169U U176G, the reverse-splicing fitness was determined as 0.00212. The result for C82U A111C A145G C150G C169A reads 0.0079; that for C82U A111U A120G A145G C150G C169G U176A, 0.00842.

In the case of A120U C150A C169G U176G, the reverse-splicing fitness came to 0.00249. With C82G A120C C169U, the reverse-splicing fitness came out at 0.0232.

In the case of C82U A111G A120G A145U C150G, the reverse-splicing fitness turned out to be 0.00645. Take C82G A145G C150A C169U U176A: the reverse-splicing fitness is 0.0137. The value for A145C C150G U176G was 0.114; that for C82A A120G A145U C150A C169A U176G was 0.00386. The result for C82A A111G A120G A145U C150U C169U reads 0.00852; that for C82A A111U A145C C150G C169G U176G, 0.00637. On to C82U A120U A145C C150G C169G, for which the reverse-splicing fitness stood at 0.00257. The value for A111U A145U C150U U176C was 0.641; that for C82A A111G A120U C169U U176G was 0.00235. The value for A120G A145G C169U U176A was 0.172; that for C82U A111C A120U C150A C169U U176G was 0.00241; that for C82U A111C A120C A145C U176A was 0.00981. The value for C82U A111G A120G A145C C150G C169U was 0.00741; that for C82G A111C A120G A145U C150A U176G was 0.00582. Turning to C82A A120G A145C C169U U176G, the reverse-splicing fitness is 0.00381. The result for C82U A111C A120U A145C C150A U176G reads 0.00265; that for C82A A111U A120C A145U C150U C169A U176C, 0.0168; that for C82G A111C A120C C150A C169A U176C, 0.019. The result for C82A A111U A145C C150A C169U reads 0.011.

Regarding C82A A111G A120U C150A C169G U176G, the reverse-splicing fitness was 0.00222. The value for A111U A145U C150U C169A U176A was 0.0144; that for A111G A120G A145G C150U C169G U176G was 0.00563. The result for C82G A111C A145G reads 0.289; that for C82U A111G A120G A145U U176G, 0.00443. Turning to C82A A111G A120U C150A C169U U176G, the reverse-splicing fitness stood at 0.00235.

For C82A A111U A120U A145C C150U U176C, the reverse-splicing fitness came to 0.00533. Consider C82U A120G A145C C150A C169G U176G, for which the reverse-splicing fitness was 0.00402. In the case of C82A A111U A120C A145G C150G C169U U176G, the reverse-splicing fitness came to 0.00787. C82A A111G A120C A145C C169G U176A: the reverse-splicing fitness came to 0.0285. As for C82A A111G A120G A145C C150G C169A U176C, the reverse-splicing fitness turned out to be 0.00743. The value for C82U A111U A120C A145C C150A was 0.00788; that for C82G A120U A145U C150U C169A U176A was 0.00183; that for C82A A120U A145C C150A C169U U176A was 0.00259. The value for C82G A111G C150U C169U U176A was 0.0147. C82G A111G A120G C150A C169U U176A: the reverse-splicing fitness turned out to be 0.021.

In the case of C82A A111U A120U A145U C150U C169U, the reverse-splicing fitness was found to be 0.00362. Turning to C82A A111G A120U C150U C169A U176A, the reverse-splicing fitness was determined as 0.00534.

Regarding C82U A111G A120U A145G C150U C169G U176C, the reverse-splicing fitness is 0.00432. In the case of C82G A111C A120C A145C C150A C169G U176G, the reverse-splicing fitness was determined as 0.00758. As to A120U C150A C169A, the reverse-splicing fitness stood at 0.00484. Regarding C82A A111C A120C A145U C150G C169G, the reverse-splicing fitness was determined as 0.00675.

Consider A111C A145U C169U U176G, for which the reverse-splicing fitness stood at 0.00798. The value for A111U A120U A145U C169G U176C was 0.00666; that for C82U A111G A120G C150U C169G U176A was 0.0144. As to A111U A120U A145C C150A C169G, the reverse-splicing fitness came out at 0.00394. The value for C82G A111U A120G A145U C169A U176C was 0.0135. For the variant A120U C150U C169A, the reverse-splicing fitness was determined as 0.0111. The result for A111G A120C C169A U176A reads 0.0147. The value for A111G A120U A145U C150A C169U U176A was 0.00329; that for C82G A111C C150A C169G was 0.00787.
